Source: paper PMC11687307, “The calcium-binding protein S100A1 binds to titin’s N2A insertion sequence in a pH-dependent manner” (The Journal of General Physiology, 2024)

B1: S100A1 (mouse) (natural protein)
chain: MGSELESAMETLINVFHAHSGQEGDKYKLSKKELKDLLQTELSGFLDVQKDADAVDKVMKELDENGDGEVDFKEYVVLVAALTVACNNFFWETS
notes: S100A1, mouse; No tag is named; source: E. coli BL21(DE3), purified (Capto-Q anion exchange, phenyl Sepharose)
B2: UN2A, unique insertion sequence of the N2A region of titin (mouse, amino acids 8539-8655) (domain or fragment)
chain: DERKKQEKIEGDLRAMLKKTPALKKGSGEEEEIDIMELLKNVDPKEYEKYARMYGITDFRGLLQAFELLKQSQEEETHRLEIEELEKSERDEKEFEELVAFIQQRLTQTEPVTLIKD
notes: titin, mouse, UN2A region between Ig domains I80 and I81, amino acids 8539-8655; Gene synthesised by GeneArt; No tag is named; source: E. coli BL21(DE3) pLysS, purified (Capto-Q anion exchange, SEC)

Legend:
Conditions in all cases: both partners purified
[1] = target: B2; test: SPR; UN2A immobilised on carboxyl sensor (OpenSPR), S100A1 injected; 25°C; pCa 3, pH 6.5; 1:1 model
[2] = target: B2; test: SPR; UN2A immobilised on carboxyl sensor (OpenSPR), S100A1 injected at 5 to 100 µM; 25°C; 250 mM NaCl, 20 mM HEPES, 0.05% Tween; pCa 3, pH 6.0; 1:1 model
[3] = target: B2; test: SPR; UN2A immobilised on carboxyl sensor (OpenSPR), S100A1 injected at 5 to 100 µM; 25°C; 250 mM NaCl, 20 mM HEPES, 0.05% Tween; pCa 3, pH 7.4; 1:1 model
[4] = target: B2; test: SPR; UN2A immobilised on carboxyl sensor (OpenSPR), S100A1 injected at 5 to 100 µM; 25°C; 250 mM NaCl, 20 mM HEPES, 0.05% Tween; pCa 5, pH 6.0; 1:1 model
[5] = target: B2; test: SPR; UN2A immobilised on carboxyl sensor (OpenSPR), S100A1 injected at 5 to 100 µM; 25°C; 250 mM NaCl, 20 mM HEPES, 0.05% Tween; pCa 5, pH 7.4; 1:1 model
[6] = target: B1; test: co-IP; purified proteins, 500 µg each, with anti-S100A1 antibody overnight at 4°C, captured on magnetic beads; 250 mM NaCl, 20 mM HEPES, 1 mM Ca^2+, pH 6; SDS-PAGE, silver staining, densitometry

| Kd [1] | Kd [2] | Kd [3] | Kd [4] | Kd [5] | band intensity of UN2A relative to the S100A1 band (densitometry) [6] | binding ratio of UN2A to S100A1 in the complex (densitometry) [6] | Binder |
| --- | --- | --- | --- | --- | --- | --- | --- |
| 9.95 µM | 5 µM | 21.6 µM | 174 µM | 285 µM |  |  | B1 |
|  |  |  |  |  | 25% | ~0.25 UN2A per S100A1 | B2 |
